# Source: article PMC12057046, “Elucidation of short linear motif-based interactions of the MIT and rhodanese domains of the ubiquitin-specific protease 8” (Biology Direct, 2025)
# B1: KIAA1614 peptide 568-583 (uncharacterized protein KIAA1614), 16-mer library wild type / USP8 rhodanese domain (ubiquitin carboxyl-terminal hydrolase 8, residues 174-317) (parent)
# chain 1: GMERVLGGLSSPLRLL
# chain 2: KCETKEKGAITAKELYTMMTDKNISLIIMDARRMQDYQDSCILHSLSVPEEAISPGVTASWIEAHLPDDSKDTWKKRGNVEYVVLLDWFSSAKDLQIGTTLRSLKDALFKWESKTVLRNEPLVLEGGYENWLLCYPQYTTNAKV
# Variants of: B1
# Assay: peptide-phage display deep mutational scan (M13, 16-mer library, displayed with a C-terminal GGGSG linker encoded by the 3' flank) selected against the GST-tagged USP8 rhodanese domain, four rounds; NGS counts summed over selection …
# Conditions: with USP8 rhodanese domain (ubiquitin carboxyl-terminal hydrolase 8, residues 174-317), 10 µg GST-bait on MaxiSorp, pre-cleared on GST, 2 h at 4 °C, five washes with 0.05% Tween 20 in PBS, not graded, scale: average over two replicas of the peptide's fractional NGS count
row,screen value,Variant
1,0.00188,chain 1 GYERVLGGLSSPLRLL [chain 1 M2Y]
2,6.32e-06,chain 1 GMERVLGGLSSLLRLL [chain 1 P12L]
3,6.32e-06,chain 1 GMERVLGGLSSQLRLL [chain 1 P12Q]
4,1.26e-05,chain 1 GMERVLGGLSSRLRLL [chain 1 P12R]
5,0.000236,chain 1 GMERVLGGLSSSLRLL [chain 1 P12S]
6,1.55e-05,chain 1 GMERVLGGLSSTLRLL [chain 1 P12T]
7,1.55e-05,chain 1 GMEAVLGGLSSPLRLL [chain 1 R4A]
8,1.26e-05,chain 1 GMELVLGGLSSPLRLL [chain 1 R4L]
9,1.9e-05,chain 1 GMENVLGGLSSPLRLL [chain 1 R4N]
10,6.32e-06,chain 1 GMETVLGGLSSPLRLL [chain 1 R4T]
11,5.05e-05,chain 1 GMEWVLGGLSSPLRLL [chain 1 R4W]
12,0.00719,chain 1 GMERVLGGLSSPLALL [chain 1 R14A]
13,1.9e-05,chain 1 GMERVLGGLSSPLELL [chain 1 R14E]
14,0.00138,chain 1 GMERVLGGLSSPLFLL [chain 1 R14F]
15,1.9e-05,chain 1 GMERVLGGLSSPLGLL [chain 1 R14G]
16,0.000346,chain 1 GMERVLGGLSSPLHLL [chain 1 R14H]
17,0.00646,chain 1 GMERVLGGLSSPLILL [chain 1 R14I]
18,0.000355,chain 1 GMERVLGGLSSPLKLL [chain 1 R14K]
19,0.000793,chain 1 GMERVLGGLSSPLLLL [chain 1 R14L]
20,0.0219,chain 1 GMERVLGGLSSPLMLL [chain 1 R14M]

row,screen value,Variant
1,5.27e-05,chain 1 GMERVLGGLSSPLNLL [chain 1 R14N]
2,3.44e-05,chain 1 GMERVLGGLSSPLQLL [chain 1 R14Q]
3,0.00245,chain 1 GMERVLGGLSSPLSLL [chain 1 R14S]
4,0.00135,chain 1 GMERVLGGLSSPLTLL [chain 1 R14T]
5,0.0436,chain 1 GMERVLGGLSSPLVLL [chain 1 R14V]
6,0.00337,chain 1 GMERVLGGLSSPLWLL [chain 1 R14W]
7,0.000377,chain 1 GMERVLGGLSSPLYLL [chain 1 R14Y]
8,6.32e-06,chain 1 GMERVLGGLASPLRLL [chain 1 S10A]
9,1.55e-05,chain 1 GMERVLGGLESPLRLL [chain 1 S10E]
10,0.00191,chain 1 GMERVLGGLHSPLRLL [chain 1 S10H]
11,6.32e-06,chain 1 GMERVLGGLISPLRLL [chain 1 S10I]
12,1.55e-05,chain 1 GMERVLGGLPSPLRLL [chain 1 S10P]
13,6.32e-06,chain 1 GMERVLGGLVSPLRLL [chain 1 S10V]
14,1.26e-05,chain 1 GMERVLGGLSAPLRLL [chain 1 S11A]
15,0.0401,chain 1 GMERVLGGLSDPLRLL [chain 1 S11D]
16,0.000128,chain 1 GMERVLGGLSEPLRLL [chain 1 S11E]
17,2.53e-05,chain 1 GMERVLGGLSFPLRLL [chain 1 S11F]
18,0.0195,chain 1 GMERVLGGLSNPLRLL [chain 1 S11N]
19,6.32e-06,chain 1 GMERVLGGLSRPLRLL [chain 1 S11R]
20,0.000682,chain 1 GMERVLGGLSTPLRLL [chain 1 S11T]

row,screen value,Variant
1,2.18e-05,chain 1 GMERVLGGLSVPLRLL [chain 1 S11V]
2,6.32e-06,chain 1 GMERVLGGLSYPLRLL [chain 1 S11Y]
3,0.000433,chain 1 GMERALGGLSSPLRLL [chain 1 V5A]
4,0.0242,chain 1 GMERDLGGLSSPLRLL [chain 1 V5D]
5,0.0217,chain 1 GMERELGGLSSPLRLL [chain 1 V5E]
6,0.0191,chain 1 GMERFLGGLSSPLRLL [chain 1 V5F]
7,0.00207,chain 1 GMERGLGGLSSPLRLL [chain 1 V5G]
8,0.0085,chain 1 GMERHLGGLSSPLRLL [chain 1 V5H]
9,9.76e-05,chain 1 GMERILGGLSSPLRLL [chain 1 V5I]
10,6.6e-05,chain 1 GMERKLGGLSSPLRLL [chain 1 V5K]
11,0.000344,chain 1 GMERLLGGLSSPLRLL [chain 1 V5L]
12,0.00268,chain 1 GMERMLGGLSSPLRLL [chain 1 V5M]
13,0.00579,chain 1 GMERNLGGLSSPLRLL [chain 1 V5N]
14,0.00189,chain 1 GMERPLGGLSSPLRLL [chain 1 V5P]
15,0.014,chain 1 GMERQLGGLSSPLRLL [chain 1 V5Q]
16,0.000121,chain 1 GMERRLGGLSSPLRLL [chain 1 V5R]
17,0.000158,chain 1 GMERSLGGLSSPLRLL [chain 1 V5S]
18,0.0104,chain 1 GMERTLGGLSSPLRLL [chain 1 V5T]
19,0.011,chain 1 GMERWLGGLSSPLRLL [chain 1 V5W]
20,0.00426,chain 1 GMERYLGGLSSPLRLL [chain 1 V5Y]
